Laboratory results published in US20150344540A1, “NOVEL GLP-1 RECEPTOR AGONISTS WITH CHOLESTEROL EFFLUX ACTIVITY” (NOVO NORDISK A/S, priority 2012, published 2015).
Where no end group is shown, it is not given here. [ ]: non-standard residue; d: D form. Aib = CC(C)(N)C(=O)O

B1: [Aib2,Glu21,Lys29,Aib30,Leu31,Glu32,Phe33,Leu34,Glu35,Leu37]-Exendin-4-(1-37)-peptide amide (peptide)
peptide: H[Aib]EGTFTSDLSKQMEEEAVREFIEWLKNK[Aib]LEFLEPL-NH2
modifications: N-terminus assumed
SMILES: CC[C@H](C)[C@H](NC(=O)[C@H](Cc1ccccc1)NC(=O)[C@H](CCC(=O)O)NC(=O)[C@H](CCCNC(=N)N)NC(=O)[C@@H](NC(=O)[C@H](C)NC(=O)[C@H](CCC(=O)O)NC(=O)[C@H](CCC(=O)O)NC(=O)[C@H](CCC(=O)O)NC(=O)[C@H](CCSC)NC(=O)[C@H](CCC(N)=O)NC(=O)[C@H](CCCCN)NC(=O)[C@H](CO)NC(=O)[C@H](CC(C)C)NC(=O)[C@H](CC(=O)O)NC(=O)[C@H](CO)NC(=O)[C@@H](NC(=O)[C@H](Cc1ccccc1)NC(=O)[C@@H](NC(=O)CNC(=O)[C@H](CCC(=O)O)NC(=O)C(C)(C)NC(=O)[C@@H](N)Cc1c[nH]cn1)[C@@H](C)O)[C@@H](C)O)C(C)C)C(=O)N[C@@H](CCC(=O)O)C(=O)N[C@@H](Cc1c[nH]c2ccccc12)C(=O)N[C@@H](CC(C)C)C(=O)N[C@@H](CCCCN)C(=O)N[C@@H](CC(N)=O)C(=O)N[C@@H](CCCCN)C(=O)NC(C)(C)C(=O)N[C@@H](CC(C)C)C(=O)N[C@@H](CCC(=O)O)C(=O)N[C@@H](Cc1ccccc1)C(=O)N[C@@H](CC(C)C)C(=O)N[C@@H](CCC(=O)O)C(=O)N1CCC[C@H]1C(=O)N[C@@H](CC(C)C)C(N)=O
B2: [Aib2,Glu21,Lys29,Aib30,Leu31,Glu32,Leu34,Glu35,Leu36,Leu37]-Exendin-4-(1-37)-peptide amide (peptide)
peptide: H[Aib]EGTFTSDLSKQMEEEAVREFIEWLKNK[Aib]LESLELL-NH2
modifications: N-terminus assumed
SMILES: CC[C@H](C)[C@H](NC(=O)[C@H](Cc1ccccc1)NC(=O)[C@H](CCC(=O)O)NC(=O)[C@H](CCCNC(=N)N)NC(=O)[C@@H](NC(=O)[C@H](C)NC(=O)[C@H](CCC(=O)O)NC(=O)[C@H](CCC(=O)O)NC(=O)[C@H](CCC(=O)O)NC(=O)[C@H](CCSC)NC(=O)[C@H](CCC(N)=O)NC(=O)[C@H](CCCCN)NC(=O)[C@H](CO)NC(=O)[C@H](CC(C)C)NC(=O)[C@H](CC(=O)O)NC(=O)[C@H](CO)NC(=O)[C@@H](NC(=O)[C@H](Cc1ccccc1)NC(=O)[C@@H](NC(=O)CNC(=O)[C@H](CCC(=O)O)NC(=O)C(C)(C)NC(=O)[C@@H](N)Cc1c[nH]cn1)[C@@H](C)O)[C@@H](C)O)C(C)C)C(=O)N[C@@H](CCC(=O)O)C(=O)N[C@@H](Cc1c[nH]c2ccccc12)C(=O)N[C@@H](CC(C)C)C(=O)N[C@@H](CCCCN)C(=O)N[C@@H](CC(N)=O)C(=O)N[C@@H](CCCCN)C(=O)NC(C)(C)C(=O)N[C@@H](CC(C)C)C(=O)N[C@@H](CCC(=O)O)C(=O)N[C@@H](CO)C(=O)N[C@@H](CC(C)C)C(=O)N[C@@H](CCC(=O)O)C(=O)N[C@@H](CC(C)C)C(=O)N[C@@H](CC(C)C)C(N)=O
B3: [Asn14,Met16,Thr17,Asn18,Glu23,Val25,Glu34,Lys35,Aib36,Lys37]-GLP-1-(7-37)-peptidyl-Glu-Phe-Leu amide (peptide)
peptide: HAEGTFTNDMTNYLEGEAVKEFIAWLVEK[Aib]KEFL-NH2
modifications: N-terminus assumed
SMILES: CC[C@H](C)[C@H](NC(=O)[C@H](Cc1ccccc1)NC(=O)[C@H](CCC(=O)O)NC(=O)[C@H](CCCCN)NC(=O)[C@@H](NC(=O)[C@H](C)NC(=O)[C@H](CCC(=O)O)NC(=O)CNC(=O)[C@H](CCC(=O)O)NC(=O)[C@H](CC(C)C)NC(=O)[C@H](Cc1ccc(O)cc1)NC(=O)[C@H](CC(N)=O)NC(=O)[C@@H](NC(=O)[C@H](CCSC)NC(=O)[C@H](CC(=O)O)NC(=O)[C@H](CC(N)=O)NC(=O)[C@@H](NC(=O)[C@H](Cc1ccccc1)NC(=O)[C@@H](NC(=O)CNC(=O)[C@H](CCC(=O)O)NC(=O)[C@H](C)NC(=O)[C@@H](N)Cc1c[nH]cn1)[C@@H](C)O)[C@@H](C)O)[C@@H](C)O)C(C)C)C(=O)N[C@@H](C)C(=O)N[C@@H](Cc1c[nH]c2ccccc12)C(=O)N[C@@H](CC(C)C)C(=O)N[C@H](C(=O)N[C@@H](CCC(=O)O)C(=O)N[C@@H](CCCCN)C(=O)NC(C)(C)C(=O)N[C@@H](CCCCN)C(=O)N[C@@H](CCC(=O)O)C(=O)N[C@@H](Cc1ccccc1)C(=O)N[C@@H](CC(C)C)C(N)=O)C(C)C
B4: [Aib2,Glu21,Lys29,Aib30,Leu31,Glu32,Phe33,Glu35,Leu36,Leu37]-Exendin-4-(1-37)-peptide amide (peptide)
peptide: H[Aib]EGTFTSDLSKQMEEEAVREFIEWLKNK[Aib]LEFGELL-NH2
modifications: N-terminus assumed
SMILES: CC[C@H](C)[C@H](NC(=O)[C@H](Cc1ccccc1)NC(=O)[C@H](CCC(=O)O)NC(=O)[C@H](CCCNC(=N)N)NC(=O)[C@@H](NC(=O)[C@H](C)NC(=O)[C@H](CCC(=O)O)NC(=O)[C@H](CCC(=O)O)NC(=O)[C@H](CCC(=O)O)NC(=O)[C@H](CCSC)NC(=O)[C@H](CCC(N)=O)NC(=O)[C@H](CCCCN)NC(=O)[C@H](CO)NC(=O)[C@H](CC(C)C)NC(=O)[C@H](CC(=O)O)NC(=O)[C@H](CO)NC(=O)[C@@H](NC(=O)[C@H](Cc1ccccc1)NC(=O)[C@@H](NC(=O)CNC(=O)[C@H](CCC(=O)O)NC(=O)C(C)(C)NC(=O)[C@@H](N)Cc1c[nH]cn1)[C@@H](C)O)[C@@H](C)O)C(C)C)C(=O)N[C@@H](CCC(=O)O)C(=O)N[C@@H](Cc1c[nH]c2ccccc12)C(=O)N[C@@H](CC(C)C)C(=O)N[C@@H](CCCCN)C(=O)N[C@@H](CC(N)=O)C(=O)N[C@@H](CCCCN)C(=O)NC(C)(C)C(=O)N[C@@H](CC(C)C)C(=O)N[C@@H](CCC(=O)O)C(=O)N[C@@H](Cc1ccccc1)C(=O)NCC(=O)N[C@@H](CCC(=O)O)C(=O)N[C@@H](CC(C)C)C(=O)N[C@@H](CC(C)C)C(N)=O
B5: [Aib2,Glu21,Lys29,Aib30,Leu31,Glu32,Phe33,Leu34,Glu35,Leu36]-Exendin-4-(1-37)-peptide amide (peptide)
peptide: H[Aib]EGTFTSDLSKQMEEEAVREFIEWLKNK[Aib]LEFLELP-NH2
modifications: N-terminus assumed
SMILES: CC[C@H](C)[C@H](NC(=O)[C@H](Cc1ccccc1)NC(=O)[C@H](CCC(=O)O)NC(=O)[C@H](CCCNC(=N)N)NC(=O)[C@@H](NC(=O)[C@H](C)NC(=O)[C@H](CCC(=O)O)NC(=O)[C@H](CCC(=O)O)NC(=O)[C@H](CCC(=O)O)NC(=O)[C@H](CCSC)NC(=O)[C@H](CCC(N)=O)NC(=O)[C@H](CCCCN)NC(=O)[C@H](CO)NC(=O)[C@H](CC(C)C)NC(=O)[C@H](CC(=O)O)NC(=O)[C@H](CO)NC(=O)[C@@H](NC(=O)[C@H](Cc1ccccc1)NC(=O)[C@@H](NC(=O)CNC(=O)[C@H](CCC(=O)O)NC(=O)C(C)(C)NC(=O)[C@@H](N)Cc1c[nH]cn1)[C@@H](C)O)[C@@H](C)O)C(C)C)C(=O)N[C@@H](CCC(=O)O)C(=O)N[C@@H](Cc1c[nH]c2ccccc12)C(=O)N[C@@H](CC(C)C)C(=O)N[C@@H](CCCCN)C(=O)N[C@@H](CC(N)=O)C(=O)N[C@@H](CCCCN)C(=O)NC(C)(C)C(=O)N[C@@H](CC(C)C)C(=O)N[C@@H](CCC(=O)O)C(=O)N[C@@H](Cc1ccccc1)C(=O)N[C@@H](CC(C)C)C(=O)N[C@@H](CCC(=O)O)C(=O)N[C@@H](CC(C)C)C(=O)N1CCC[C@H]1C(N)=O
B6: [Aib2,Glu21,Lys29,Aib30,Leu31,Glu32,Phe33,Leu34,Leu36,Leu37]-Exendin-4-(1-37)-peptide amide (peptide)
peptide: H[Aib]EGTFTSDLSKQMEEEAVREFIEWLKNK[Aib]LEFLALL-NH2
modifications: N-terminus assumed
SMILES: CC[C@H](C)[C@H](NC(=O)[C@H](Cc1ccccc1)NC(=O)[C@H](CCC(=O)O)NC(=O)[C@H](CCCNC(=N)N)NC(=O)[C@@H](NC(=O)[C@H](C)NC(=O)[C@H](CCC(=O)O)NC(=O)[C@H](CCC(=O)O)NC(=O)[C@H](CCC(=O)O)NC(=O)[C@H](CCSC)NC(=O)[C@H](CCC(N)=O)NC(=O)[C@H](CCCCN)NC(=O)[C@H](CO)NC(=O)[C@H](CC(C)C)NC(=O)[C@H](CC(=O)O)NC(=O)[C@H](CO)NC(=O)[C@@H](NC(=O)[C@H](Cc1ccccc1)NC(=O)[C@@H](NC(=O)CNC(=O)[C@H](CCC(=O)O)NC(=O)C(C)(C)NC(=O)[C@@H](N)Cc1c[nH]cn1)[C@@H](C)O)[C@@H](C)O)C(C)C)C(=O)N[C@@H](CCC(=O)O)C(=O)N[C@@H](Cc1c[nH]c2ccccc12)C(=O)N[C@@H](CC(C)C)C(=O)N[C@@H](CCCCN)C(=O)N[C@@H](CC(N)=O)C(=O)N[C@@H](CCCCN)C(=O)NC(C)(C)C(=O)N[C@@H](CC(C)C)C(=O)N[C@@H](CCC(=O)O)C(=O)N[C@@H](Cc1ccccc1)C(=O)N[C@@H](CC(C)C)C(=O)N[C@@H](C)C(=O)N[C@@H](CC(C)C)C(=O)N[C@@H](CC(C)C)C(N)=O
B7: [Aib8,Glu23,Val25,Arg26,Glu34,Arg35,Aib36,Arg37]-GLP-1-(7-37)-peptidyl-Glu-Phe-Leu amide (peptide)
peptide: H[Aib]EGTFTSDVSSYLEGEAVREFIAWLVER[Aib]REFL-NH2
modifications: N-terminus assumed
SMILES: CC[C@H](C)[C@H](NC(=O)[C@H](Cc1ccccc1)NC(=O)[C@H](CCC(=O)O)NC(=O)[C@H](CCCNC(=N)N)NC(=O)[C@@H](NC(=O)[C@H](C)NC(=O)[C@H](CCC(=O)O)NC(=O)CNC(=O)[C@H](CCC(=O)O)NC(=O)[C@H](CC(C)C)NC(=O)[C@H](Cc1ccc(O)cc1)NC(=O)[C@H](CO)NC(=O)[C@H](CO)NC(=O)[C@@H](NC(=O)[C@H](CC(=O)O)NC(=O)[C@H](CO)NC(=O)[C@@H](NC(=O)[C@H](Cc1ccccc1)NC(=O)[C@@H](NC(=O)CNC(=O)[C@H](CCC(=O)O)NC(=O)C(C)(C)NC(=O)[C@@H](N)Cc1c[nH]cn1)[C@@H](C)O)[C@@H](C)O)C(C)C)C(C)C)C(=O)N[C@@H](C)C(=O)N[C@@H](Cc1c[nH]c2ccccc12)C(=O)N[C@@H](CC(C)C)C(=O)N[C@H](C(=O)N[C@@H](CCC(=O)O)C(=O)N[C@@H](CCCNC(=N)N)C(=O)NC(C)(C)C(=O)N[C@@H](CCCNC(=N)N)C(=O)N[C@@H](CCC(=O)O)C(=O)N[C@@H](Cc1ccccc1)C(=O)N[C@@H](CC(C)C)C(N)=O)C(C)C

Biological target: human GLP-1 receptor (human, UniProt P43220)
Assay: cell-based or functional assay

Binder	CRE luciferase EC50, 0% HSA	CRE luciferase EC50, 1% HSA
B1	32 pM	13 pM
B2	23 pM	11 pM
B3	186 pM	77 pM
B4	26 pM	12 pM
B5	23 pM	10 pM
B6	754 pM	388 pM
B7	86 pM	41 pM
